From publication PMC6389977
pKd: −log10 of the molar value.

Molecular target: purified recombinant human GAPDH protein (human) (UniProt P04406)
Experiment: SPR

purified recombinant human GAPDH protein (human), sequence (P04406 whole entry): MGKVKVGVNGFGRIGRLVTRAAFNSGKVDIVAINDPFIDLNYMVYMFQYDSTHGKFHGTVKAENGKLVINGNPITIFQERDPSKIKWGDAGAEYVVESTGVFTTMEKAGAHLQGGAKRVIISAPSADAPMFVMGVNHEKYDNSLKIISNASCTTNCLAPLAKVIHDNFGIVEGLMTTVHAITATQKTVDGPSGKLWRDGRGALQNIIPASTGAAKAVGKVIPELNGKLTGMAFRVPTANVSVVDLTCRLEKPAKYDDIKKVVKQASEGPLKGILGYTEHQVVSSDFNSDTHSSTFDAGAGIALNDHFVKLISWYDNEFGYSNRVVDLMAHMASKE
DENV2 NS3 protease domain (domain or fragment), sequence (P14340 1476-1660 limits assumed): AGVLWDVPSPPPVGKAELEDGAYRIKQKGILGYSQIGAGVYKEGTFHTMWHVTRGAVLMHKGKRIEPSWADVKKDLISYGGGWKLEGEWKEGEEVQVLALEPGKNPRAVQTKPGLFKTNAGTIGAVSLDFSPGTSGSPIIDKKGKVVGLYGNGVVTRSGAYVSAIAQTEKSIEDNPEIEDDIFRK
DENV2 NS3 helicase domain (domain or fragment), sequence (P14340 1644-2093 limits assumed): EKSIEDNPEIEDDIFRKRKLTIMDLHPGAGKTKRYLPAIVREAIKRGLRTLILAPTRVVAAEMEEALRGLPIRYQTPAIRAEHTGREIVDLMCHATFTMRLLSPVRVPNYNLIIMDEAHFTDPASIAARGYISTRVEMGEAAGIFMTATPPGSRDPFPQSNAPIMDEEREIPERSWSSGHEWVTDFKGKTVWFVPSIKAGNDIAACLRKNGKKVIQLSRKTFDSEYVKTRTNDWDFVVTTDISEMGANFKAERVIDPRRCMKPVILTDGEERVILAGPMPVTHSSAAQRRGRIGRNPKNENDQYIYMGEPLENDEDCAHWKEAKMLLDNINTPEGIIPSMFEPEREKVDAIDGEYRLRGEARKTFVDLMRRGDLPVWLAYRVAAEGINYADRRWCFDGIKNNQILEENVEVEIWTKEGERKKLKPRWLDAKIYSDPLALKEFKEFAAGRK

Substance	pKd
DENV2 NS3 helicase domain (domain or fragment)	5.60
DENV2 NS3 protease domain (domain or fragment)	5.62
